Test results published in US20230285635.

Tests used:
[1] = target: CD31 (PECAM-1) (UniProt P16284); test: flow; settings: positions printed as 6 (n in SEQ ID NO: 1) are modified bases, identity not stated in the supplied text; at 600 and 800 nM aptamer, saturated at 600 nM; CD31-negative HepG2 and MSCs only about 2% bound
[2] = target: CD31 (PECAM-1) (UniProt P16284); test: cell_activity; settings: positions printed as 6 (n in SEQ ID NO: 1) are modified bases, identity not stated in the supplied text; aptamer-coated microfluidic device on ECM, shear stress 20 dynes/cm2; antibody coating 51%; more than 80% attached at 10 dynes/cm2

Sequence: TCAGCCGCCAGCCAGTTCGTAGAGGAGGTACGTAATGTCTGGGTATACCCCGATAATTGACCAGAGCACCACAGAG [anti-CD31 aptamer]
- binding signal (% of HUVECs bound) [1]: 99
- activity (% HUVECs attached) [2]: 61.5
